Laboratory results as given in paper PMC5356278, “Identification of residues important for the activity of aldehyde-deformylating oxygenase through investigation into the structure-activity relationship” (BMC Biotechnology, 2017).

Substrate: CCCCCCC=O
Assay: purified protein
Assay type: biochemical, Synechocystis sp. PCC 6803
Conditions: NADH 750 uM, PMS 75 uM, catalase 1 mg/ml, ferrous ammonium sulfate 80 uM, 100 mM HEPES pH 7.2, 100 mM KCl

Protein | Km | kcat | kcat/Km
cADO-sll0208 (sll0208) (Synechocystis sp. PCC 6803 substr. Kazusa; L148R) (protein, full gene in pET-28a(+) (NdeI/XhoI), E. coli BL21(DE3), nickel column; apo enzyme reconstituted with stoichiometric ferrous iron (diferrous form)) MPELAVRTEFDYSSEIYKDAYSRINAIVIEGEQEAYSNYLQMAELLPEDKEELTRLAKMENRHKKGFQACGNNLQVNPDMPYAQEFFAGLHGNFQHAFSEGKVVTCLLIQALIIEAFAIAAYNIYIPVADDFARKITEGVVKDEYTHRNYGEEWLKANFATAKEELEQANKENLPLVWKMLNQVQGDAKVLGMEKEALVEDFMISYGEALSNIGFSTREIMRMSSYGLAGV | 320 ± 80 µM | 0.0152 ± 0.00133 s⁻¹ | 47.3 ± 5 M⁻¹ s⁻¹
cADO-sll0208 (sll0208) (Synechocystis sp. PCC 6803 substr. Kazusa; D49H/N123H) (protein, full gene in pET-28a(+) (NdeI/XhoI), E. coli BL21(DE3), nickel column; apo enzyme reconstituted with stoichiometric ferrous iron (diferrous form)) MPELAVRTEFDYSSEIYKDAYSRINAIVIEGEQEAYSNYLQMAELLPEHKEELTRLAKMENRHKKGFQACGNNLQVNPDMPYAQEFFAGLHGNFQHAFSEGKVVTCLLIQALIIEAFAIAAYHIYIPVADDFARKITEGVVKDEYTHLNYGEEWLKANFATAKEELEQANKENLPLVWKMLNQVQGDAKVLGMEKEALVEDFMISYGEALSNIGFSTREIMRMSSYGLAGV | 380 ± 80 µM | 0.0138 ± 0.00133 s⁻¹ | 36.3 ± 3.33 M⁻¹ s⁻¹
cADO-sll0208 (sll0208) (Synechocystis sp. PCC 6803 substr. Kazusa) (protein, full gene in pET-28a(+) (NdeI/XhoI), E. coli BL21(DE3), nickel column; apo enzyme reconstituted with stoichiometric ferrous iron (diferrous form)) MPELAVRTEFDYSSEIYKDAYSRINAIVIEGEQEAYSNYLQMAELLPEDKEELTRLAKMENRHKKGFQACGNNLQVNPDMPYAQEFFAGLHGNFQHAFSEGKVVTCLLIQALIIEAFAIAAYNIYIPVADDFARKITEGVVKDEYTHLNYGEEWLKANFATAKEELEQANKENLPLVWKMLNQVQGDAKVLGMEKEALVEDFMISYGEALSNIGFSTREIMRMSSYGLAGV | 350 ± 70 µM | 0.00983 ± 0.000667 s⁻¹ | 28.2 ± 3.33 M⁻¹ s⁻¹

Substrate: CCCCCCC=O
Assay: purified protein
Assay type: biochemical, Synechococcus elongatus
Conditions: NADH 750 uM, PMS 75 uM, catalase 1 mg/ml, ferrous ammonium sulfate 80 uM, 100 mM HEPES pH 7.2, 100 mM KCl
Remark: another data set of the same source

Protein | Km | kcat | kcat/Km
cADO-1593 (1593) (Synechococcus elongatus PCC 7942 = FACHB-805; L146T) (protein, codon-optimised synthetic gene, E. coli BL21(DE3), nickel column; apo enzyme reconstituted with stoichiometric ferrous iron (diferrous form)) MPQLEASLELDFQSESYKDAYSRINAIVIEGEQEAFDNYNRLAEMLPDQRDELHKLAKMEQRHMKGFMACGKNLSVTPDMGFAQKFFERLHENFKAAAAEGKVVTCLLIQSLIIECFAIAAYNIYIPVADAFARKITEGVVRDEYTHRNFGEEWLKANFDASKAELEEANRQNLPLVWLMLNEVADDARELGMERESLVEDFMIAYGEALENIGFTTREIMRMSAYGLAAV | 340 ± 80 µM | 0.0157 ± 0.00133 s⁻¹ | 46 ± 5 M⁻¹ s⁻¹
cADO-1593 (1593) (Synechococcus elongatus PCC 7942 = FACHB-805; F150Y/Q49H) (protein, codon-optimised synthetic gene, E. coli BL21(DE3), nickel column; apo enzyme reconstituted with stoichiometric ferrous iron (diferrous form)) MPQLEASLELDFQSESYKDAYSRINAIVIEGEQEAFDNYNRLAEMLPDHRDELHKLAKMEQRHMKGFMACGKNLSVTPDMGFAQKFFERLHENFKAAAAEGKVVTCLLIQSLIIECFAIAAYNIYIPVADAFARKITEGVVRDEYLHRNYGEEWLKANFDASKAELEEANRQNLPLVWLMLNEVADDARELGMERESLVEDFMIAYGEALENIGFTTREIMRMSAYGLAAV | 330 ± 50 µM | 0.0145 ± 0.000667 s⁻¹ | 44 ± 3.33 M⁻¹ s⁻¹
cADO-1593 (1593) (Synechococcus elongatus PCC 7942 = FACHB-805; F150Y) (protein, codon-optimised synthetic gene, E. coli BL21(DE3), nickel column; apo enzyme reconstituted with stoichiometric ferrous iron (diferrous form)) MPQLEASLELDFQSESYKDAYSRINAIVIEGEQEAFDNYNRLAEMLPDQRDELHKLAKMEQRHMKGFMACGKNLSVTPDMGFAQKFFERLHENFKAAAAEGKVVTCLLIQSLIIECFAIAAYNIYIPVADAFARKITEGVVRDEYLHRNYGEEWLKANFDASKAELEEANRQNLPLVWLMLNEVADDARELGMERESLVEDFMIAYGEALENIGFTTREIMRMSAYGLAAV | 200 ± 40 µM | 0.0125 ± 0.000667 s⁻¹ | 62.5 ± 6.67 M⁻¹ s⁻¹
cADO-1593 (1593) (Synechococcus elongatus PCC 7942 = FACHB-805; F150Y/N123H/Q49H) (protein, codon-optimised synthetic gene, E. coli BL21(DE3), nickel column; apo enzyme reconstituted with stoichiometric ferrous iron (diferrous form)) MPQLEASLELDFQSESYKDAYSRINAIVIEGEQEAFDNYNRLAEMLPDHRDELHKLAKMEQRHMKGFMACGKNLSVTPDMGFAQKFFERLHENFKAAAAEGKVVTCLLIQSLIIECFAIAAYHIYIPVADAFARKITEGVVRDEYLHRNYGEEWLKANFDASKAELEEANRQNLPLVWLMLNEVADDARELGMERESLVEDFMIAYGEALENIGFTTREIMRMSAYGLAAV | 350 ± 20 µM | 0.0173 ± 0.000333 s⁻¹ | 49.5 ± 5 M⁻¹ s⁻¹
cADO-1593 (1593) (Synechococcus elongatus PCC 7942 = FACHB-805; W178R) (protein, codon-optimised synthetic gene, E. coli BL21(DE3), nickel column; apo enzyme reconstituted with stoichiometric ferrous iron (diferrous form)) MPQLEASLELDFQSESYKDAYSRINAIVIEGEQEAFDNYNRLAEMLPDQRDELHKLAKMEQRHMKGFMACGKNLSVTPDMGFAQKFFERLHENFKAAAAEGKVVTCLLIQSLIIECFAIAAYNIYIPVADAFARKITEGVVRDEYLHRNFGEEWLKANFDASKAELEEANRQNLPLVRLMLNEVADDARELGMERESLVEDFMIAYGEALENIGFTTREIMRMSAYGLAAV | 340 ± 80 µM | 0.0302 ± 0.0025 s⁻¹ | 88.7 ± 6.67 M⁻¹ s⁻¹
